The record followed here is publication PMC6555819, “Comprehensive study of nuclear receptor DNA binding provides a revised framework for understanding receptor specificity”.

B1: NRC3_random_hg19_495_o1 (dsDNA)
DNA 1: GCGCACCATCTGTGAGAAAGTAGCCCTTCACCAAACGCGATTGACAGCGTAGAATGAAGG
DNA 2: CCTTCATTCTACGCTGTCAATCGCGTTTGGTGAAGGGCTACTTTCTCACAGATGGTGCGC
B2: NRC3_random_hg19_100_o1 (dsDNA)
DNA 1: GCGAGTTTGAGACCAGCCTGGCCAACATGGCAAGAGGCGATTGACAGCGTAGAATGAAGG
DNA 2: CCTTCATTCTACGCTGTCAATCGCCTCTTGCCATGTTGGCCAGGCTGGTCTCAAACTCGC
B3: NRC3_random_hg19_262_o1 (dsDNA)
DNA 1: GCGACTAATGCTTACCTTTAGAAAGTGCAAGTGAATGCGATTGACAGCGTAGAATGAAGG
DNA 2: CCTTCATTCTACGCTGTCAATCGCATTCACTTGCACTTTCTAAAGGTAAGCATTAGTCGC
B4: NRC3_wobSeed74_DR3_T21G_o1 (dsDNA)
DNA 1: GCTCTAGTTGGTCACGGAGGGCACACACGACGGGTAGCGATTGACAGCGTAGAATGAAGG
DNA 2: CCTTCATTCTACGCTGTCAATCGCTACCCGTCGTGTGTGCCCTCCGTGACCAACTAGAGC
B5: NRC3_random_hg19_352_o1 (dsDNA)
DNA 1: GCGAGATGCAGCCAACCTGTAGAGATCCTGTGGAGAGCGATTGACAGCGTAGAATGAAGG
DNA 2: CCTTCATTCTACGCTGTCAATCGCTCTCCACAGGATCTCTACAGGTTGGCTGCATCTCGC
B6: NRC3_random_hg19_110_o1 (dsDNA)
DNA 1: GCTGCTGATTCATAGCTTGTAACTTCGTGTTCTTTAGCGATTGACAGCGTAGAATGAAGG
DNA 2: CCTTCATTCTACGCTGTCAATCGCTAAAGAACACGAAGTTACAAGCTATGAATCAGCAGC
B7: NRC3_wobSeed29_DR1_G17A_o1 (dsDNA)
DNA 1: GCGCTTACGGGTCAAAAGTTATAGCATGAATAGAATGCGATTGACAGCGTAGAATGAAGG
DNA 2: CCTTCATTCTACGCTGTCAATCGCATTCTATTCATGCTATAACTTTTGACCCGTAAGCGC
B8: NRC3_random_hg19_151_o1 (dsDNA)
DNA 1: GCCCCAATCTACTAGAAACACTTCCTGGAGAACCCGGCGATTGACAGCGTAGAATGAAGG
DNA 2: CCTTCATTCTACGCTGTCAATCGCCGGGTTCTCCAGGAAGTGTTTCTAGTAGATTGGGGC
B9: NRC3_random_hg19_97_o1 (dsDNA)
DNA 1: GCAAAGGCCTGAGAACCAGGACCTCCAGTGTCCTCAGCGATTGACAGCGTAGAATGAAGG
DNA 2: CCTTCATTCTACGCTGTCAATCGCTGAGGACACTGGAGGTCCTGGTTCTCAGGCCTTTGC
B10: NRC3_random_hg19_122_o1 (dsDNA)
DNA 1: GCTGGCAATGGCTGGACCACTCCAAGAACTGTGTGGGCGATTGACAGCGTAGAATGAAGG
DNA 2: CCTTCATTCTACGCTGTCAATCGCCCACACAGTTCTTGGAGTGGTCCAGCCATTGCCAGC
B11: NRC3_random_hg19_65_o1 (dsDNA)
DNA 1: GCATGGTGATGAAAGCAAAGGAGTAATGTTTCTGTGGCGATTGACAGCGTAGAATGAAGG
DNA 2: CCTTCATTCTACGCTGTCAATCGCCACAGAAACATTACTCCTTTGCTTTCATCACCATGC
B12: NRC3_random_hg19_201_o1 (dsDNA)
DNA 1: GCCAAGGCTACCAAAGCAGTTTCTGGGCATGCTGAGGCGATTGACAGCGTAGAATGAAGG
DNA 2: CCTTCATTCTACGCTGTCAATCGCCTCAGCATGCCCAGAAACTGCTTTGGTAGCCTTGGC
B13: NRC3_random_hg19_405_o1 (dsDNA)
DNA 1: GCAGCGCACCAGCATGGCACATGTATACATATGTAAGCGATTGACAGCGTAGAATGAAGG
DNA 2: CCTTCATTCTACGCTGTCAATCGCTTACATATGTATACATGTGCCATGCTGGTGCGCTGC
B14: NRC3_random_hg19_46_o1 (dsDNA)
DNA 1: GCAGTAATGCCAATGTCATGATGTGGTCCAGGAATGGCGATTGACAGCGTAGAATGAAGG
DNA 2: CCTTCATTCTACGCTGTCAATCGCCATTCCTGGACCACATCATGACATTGGCATTACTGC
B15: NRC3_random_hg19_61_o1 (dsDNA)
DNA 1: GCGCAGAGGTTGCAATGAGCCAAGATTGTACCACTGGCGATTGACAGCGTAGAATGAAGG
DNA 2: CCTTCATTCTACGCTGTCAATCGCCAGTGGTACAATCTTGGCTCATTGCAACCTCTGCGC
B16: NRC3_random_hg19_71_o1 (dsDNA)
DNA 1: GCCATGTCACCTCCCTGAGGTGCAGTTTGCTTCAAGGCGATTGACAGCGTAGAATGAAGG
DNA 2: CCTTCATTCTACGCTGTCAATCGCCTTGAAGCAAACTGCACCTCAGGGAGGTGACATGGC
B17: NRC3_random_hg19_39_o1 (dsDNA)
DNA 1: GCGGGCAACTCGTTCGACTCAGGGAGCTATGGGTAGGCGATTGACAGCGTAGAATGAAGG
DNA 2: CCTTCATTCTACGCTGTCAATCGCCTACCCATAGCTCCCTGAGTCGAACGAGTTGCCCGC
B18: NRC3_random_hg19_182_o1 (dsDNA)
DNA 1: GCGCAGGAGACTCACTTGTGCATGCAGGGTTGAGGCGCGATTGACAGCGTAGAATGAAGG
DNA 2: CCTTCATTCTACGCTGTCAATCGCGCCTCAACCCTGCATGCACAAGTGAGTCTCCTGCGC
B19: NRC3_random_hg19_86_o1 (dsDNA)
DNA 1: GCAAACAAGGAGGAGAGGTGTTCTGGAGAACTGCTTGCGATTGACAGCGTAGAATGAAGG
DNA 2: CCTTCATTCTACGCTGTCAATCGCAAGCAGTTCTCCAGAACACCTCTCCTCCTTGTTTGC
B20: NRC3_random_hg19_193_o1 (dsDNA)
DNA 1: GCTGGAAGATGAAGAAGAACTATTGCTCGATGGAGAGCGATTGACAGCGTAGAATGAAGG
DNA 2: CCTTCATTCTACGCTGTCAATCGCTCTCCATCGAGCAATAGTTCTTCTTCATCTTCCAGC
B21: NRC3_random_hg19_472_o1 (dsDNA)
DNA 1: GCTGATGGGCTTCAAGTTGCTAACCCAGGAAATGGAGCGATTGACAGCGTAGAATGAAGG
DNA 2: CCTTCATTCTACGCTGTCAATCGCTCCATTTCCTGGGTTAGCAACTTGAAGCCCATCAGC

Chain of PPARa:RXRa (Q07869 whole entry, chain 1 of 2): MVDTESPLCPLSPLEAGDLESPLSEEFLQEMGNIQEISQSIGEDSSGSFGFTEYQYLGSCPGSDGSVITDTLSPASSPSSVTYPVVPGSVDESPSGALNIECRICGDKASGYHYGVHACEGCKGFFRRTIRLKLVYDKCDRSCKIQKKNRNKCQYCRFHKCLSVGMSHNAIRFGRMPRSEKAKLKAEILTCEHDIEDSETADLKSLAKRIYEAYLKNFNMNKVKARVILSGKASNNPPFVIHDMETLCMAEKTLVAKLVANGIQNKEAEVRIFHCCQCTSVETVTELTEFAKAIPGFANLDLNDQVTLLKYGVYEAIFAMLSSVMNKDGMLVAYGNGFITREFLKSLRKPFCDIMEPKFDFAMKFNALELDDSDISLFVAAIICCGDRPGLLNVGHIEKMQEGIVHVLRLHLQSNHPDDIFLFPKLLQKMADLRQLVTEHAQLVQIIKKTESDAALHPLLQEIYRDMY
Chain of PPARa:RXRa (P19793 whole entry, chain 2 of 2): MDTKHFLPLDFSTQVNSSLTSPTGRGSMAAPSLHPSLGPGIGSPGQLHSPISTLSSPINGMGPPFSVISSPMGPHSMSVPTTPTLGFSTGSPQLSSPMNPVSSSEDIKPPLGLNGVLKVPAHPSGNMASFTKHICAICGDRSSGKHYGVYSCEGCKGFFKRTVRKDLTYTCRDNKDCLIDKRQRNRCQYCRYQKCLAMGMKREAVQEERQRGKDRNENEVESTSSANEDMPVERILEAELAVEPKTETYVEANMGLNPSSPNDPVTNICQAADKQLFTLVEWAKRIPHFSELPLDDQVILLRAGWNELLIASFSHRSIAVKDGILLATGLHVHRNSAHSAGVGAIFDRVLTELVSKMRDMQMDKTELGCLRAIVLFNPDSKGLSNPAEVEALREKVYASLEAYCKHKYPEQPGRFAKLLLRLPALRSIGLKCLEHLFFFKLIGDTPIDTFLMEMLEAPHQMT
Chain of RARg:RXRa (P13631 whole entry, chain 1 of 2): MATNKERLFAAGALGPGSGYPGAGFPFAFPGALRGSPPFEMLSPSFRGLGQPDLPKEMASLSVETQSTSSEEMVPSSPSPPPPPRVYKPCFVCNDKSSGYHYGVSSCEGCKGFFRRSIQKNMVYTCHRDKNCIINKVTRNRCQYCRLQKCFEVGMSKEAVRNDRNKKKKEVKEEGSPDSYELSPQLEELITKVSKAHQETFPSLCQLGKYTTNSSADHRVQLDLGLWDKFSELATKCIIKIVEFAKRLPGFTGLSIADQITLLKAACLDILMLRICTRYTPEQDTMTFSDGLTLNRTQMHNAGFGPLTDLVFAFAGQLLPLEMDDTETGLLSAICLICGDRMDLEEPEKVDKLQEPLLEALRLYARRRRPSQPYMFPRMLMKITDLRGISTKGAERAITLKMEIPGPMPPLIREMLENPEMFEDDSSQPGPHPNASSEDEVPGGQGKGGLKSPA
Chain of RARg:RXRa (P19793 whole entry, chain 2 of 2): as the sequence (P19793 whole entry, chain 2 of 2) above
Chain of LXRb:RXRa (P55055 whole entry, chain 1 of 2): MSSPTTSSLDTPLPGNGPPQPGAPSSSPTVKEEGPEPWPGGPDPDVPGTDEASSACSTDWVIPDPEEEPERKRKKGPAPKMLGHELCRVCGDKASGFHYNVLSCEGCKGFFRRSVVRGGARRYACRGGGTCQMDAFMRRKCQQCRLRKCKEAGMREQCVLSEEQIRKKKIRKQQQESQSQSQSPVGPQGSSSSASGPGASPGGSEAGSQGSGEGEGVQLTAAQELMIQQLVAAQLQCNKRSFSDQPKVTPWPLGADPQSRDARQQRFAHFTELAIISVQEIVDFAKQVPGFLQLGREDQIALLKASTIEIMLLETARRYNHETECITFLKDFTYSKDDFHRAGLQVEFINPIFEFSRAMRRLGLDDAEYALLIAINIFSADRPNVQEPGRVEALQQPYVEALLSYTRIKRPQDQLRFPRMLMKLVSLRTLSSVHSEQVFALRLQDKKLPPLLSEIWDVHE
Chain of LXRb:RXRa (P19793 whole entry, chain 2 of 2): as the sequence (P19793 whole entry, chain 2 of 2) above

The target in one data set is FXR:RXRa (Homo sapiens, UniProt Q96RI1;P19793 full;full). In words: no ligand; PBM; 270 nM : 90 nM RXRa; PBS pH 7.4, 2% milk, 0.02% Triton X-100, 1 mM DTT, BSA, 0.4 mg/ml salmon testes DNA. The following applies: tags: His kept;His cleaved; copies: 1;1; label: surface-attached array probe. A digest of the protocol: (§1)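 Antibodies against each partner of ligand-free nuclear receptor dimers (one per run) detected binding on custom Agilent 4×180K protein-binding microarrays after 1 h incubation. The double-stranded probes had 34-nt variable regions carrying direct-repeat seeds, single-nucleotide variants, half-site ablations and random human genomic background sequences. Binding z-scores, from regression-normalized fluorescence, use the random background probes as reference.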
Chain of FXR:RXRa (Q96RI1 whole entry, chain 1 of 2): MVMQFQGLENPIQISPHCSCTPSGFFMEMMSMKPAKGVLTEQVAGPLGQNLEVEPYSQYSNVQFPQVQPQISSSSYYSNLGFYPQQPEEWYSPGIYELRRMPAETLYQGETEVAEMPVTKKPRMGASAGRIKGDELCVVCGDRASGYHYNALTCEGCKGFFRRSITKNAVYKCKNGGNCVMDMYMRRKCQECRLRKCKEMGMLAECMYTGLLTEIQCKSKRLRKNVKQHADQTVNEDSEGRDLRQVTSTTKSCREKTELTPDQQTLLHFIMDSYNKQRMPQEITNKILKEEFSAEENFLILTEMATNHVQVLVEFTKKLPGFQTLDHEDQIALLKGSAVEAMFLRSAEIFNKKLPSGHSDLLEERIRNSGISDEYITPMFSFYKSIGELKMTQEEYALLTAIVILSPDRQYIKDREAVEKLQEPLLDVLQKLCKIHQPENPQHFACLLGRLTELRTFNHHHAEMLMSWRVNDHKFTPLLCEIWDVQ
Chain of FXR:RXRa (P19793 whole entry, chain 2 of 2): as the sequence (P19793 whole entry, chain 2 of 2) above
With B1, the binding signal was -0.51 PBM z-score against 500 random probes.

For B2, the binding signal is -0.7 PBM z-score against 500 random probes. Consider B3, for which the binding signal is 0.19 PBM z-score against 500 random probes. Turning to B4, the binding signal is 0.34 PBM z-score against 500 random probes. The same measure, in the same setting: under B5 stands -0.39 PBM z-score against 500 random probes.

For another data set, the target named is RARg:RXRa (Homo sapiens, UniProt P13631;P19793 full;full). Described as above. The following applies: tags: His kept;His cleaved; copies: 1;1; label: surface-attached array probe. In short, it runs like this:
as §1
Consider B6, for which the binding signal was -0.76 PBM z-score against 500 random probes. On the same count and under the same terms, under B7 stands 4.11 PBM z-score against 500 random probes.

B5: the binding signal was -0.52 PBM z-score against 500 random probes. The same measure, in the same setting: under B8 stands -0.01 PBM z-score against 500 random probes.

In the next data set the target is LXRb:RXRa (Homo sapiens, UniProt P55055;P19793 full;full). The description is as above. As to conditions: tags: His kept;His cleaved; copies: 1;1; label: surface-attached array probe. In short, it runs like this:
as §1
With B9, the binding signal was -0.68 PBM z-score against 500 random probes. The same measure, in the same setting: under B6 stands -0.27 PBM z-score against 500 random probes; under B1, -0.24 PBM z-score against 500 random probes. Take B2: the binding signal was -1.11 PBM z-score against 500 random probes. As for B3, the binding signal was 0.24 PBM z-score against 500 random probes. Same read-out and setting: under B10 stands -0.85 PBM z-score against 500 random probes.

As to B11, the binding signal is 0.22 PBM z-score against 500 random probes.

Regarding B12, the binding signal was -0.95 PBM z-score against 500 random probes. Regarding B7, the binding signal is 3.65 PBM z-score against 500 random probes. On the same count and under the same terms, under B13 stands -0.44 PBM z-score against 500 random probes. On the same count and under the same terms, under B4 stands 0.5 PBM z-score against 500 random probes.

B5: the binding signal is -0.67 PBM z-score against 500 random probes. With B14, the binding signal is -0.76 PBM z-score against 500 random probes.

Regarding B15, the binding signal is -0.15 PBM z-score against 500 random probes. On the same count and under the same terms, under B16 stands 0.34 PBM z-score against 500 random probes. The same measure, in the same setting: under B17 stands -0.61 PBM z-score against 500 random probes; under B8, 0.38 PBM z-score against 500 random probes; under B18, -1.08 PBM z-score against 500 random probes. On the same count and under the same terms, under B19 stands 0.18 PBM z-score against 500 random probes; under B20, -0.54 PBM z-score against 500 random probes; under B21, -0.26 PBM z-score against 500 random probes.

The target in a further data set is PPARa:RXRa (Homo sapiens, UniProt Q07869;P19793 full;full). The data set is described as above. As to conditions: tags: GST kept;His cleaved; copies: 1;1; label: surface-attached array probe. In short, it runs like this:
as §1
As for B3, the binding signal is 0.36 PBM z-score against 500 random probes. Same read-out and setting: under B12 stands -0.55 PBM z-score against 500 random probes. The same measure, in the same setting: under B5 stands -0.6 PBM z-score against 500 random probes.
